Test results as given in US6960559B1, “Neurite growth regulatory factors” (University of Zurich, priority 1988, dated 2005).
Values joined by “and” are separate entries in the source; they are usually repeats but may differ in a detail not shown here. Equal entries are not always repeated. Each block holds one molecule with its values, some of them ahead of it.

Columns and labels:
[1] = tested on: C6 plasma membrane associated metalloendoprotease; experiment: Enzyme assay: cbz-FAF[125I]Y-NH2 degradation by C6 plasma membranes with protease blockers; type: biochemical, rat
Procedure: For most experiments, 70-80% confluent cell layers (1 cm^2 wells, 100 μl MEMα) or 2-5 μg C6 plasma membrane (100 μl MEMα) were used. […] If indicated, cell layers or plasma membrane suspensions were preincubated for 30 min with protease blockers or peptides. NEM or iodacetamide incubations of plasma membranes were performed at pH 8.5. The incubation was stopped by loading a 10 μl aliquot of the incubation medium on a thin layer chromatography plate (10 cm height, Kieselgel 60 F254, MERCK, Germany) and air dried. […] Plates were then air dried and exposed on Kodak X-OMAT films (NY, USA) with an intensifying screen. To identify the degradation products on thin-layer chromatography, we run reference peptides under the same conditions.
(§1) For the quantification of the activity, the reaction was stopped by addition of an equal volume of chloroform. […] Activity is expressed as % radioactivity contained in the aqueous phase. 100% is the sum of the radioactivity of both phases.

cbz-FAF[^125I]Y-NH2 = experiment: Degradation of cbz-FAF[125I]Y-NH2 by defined proteases and C6 cell fractions; type: biochemical; conditions: 37° C., pH 7.4
Procedure: Preparation of plasma membrane from C6 cells was performed according to (Raper and Kapfhammer, 1990, Neuron 2:21-29) with some modifications. Briefly, C6 cells were cultured in 30 culture dishes (13.5 cm diameter). At confluency, the culture medium was removed and the cell layers were frozen to −20° C. All subsequent manipulations were performed at 4° C.: cell debris were collected using a rubber policeman in 100 ml CMF-Hank's and further homogenized by 10 strokes in a Dounce homogenizer with teflon plunger. A small aliquot of this suspension was stored at −20° C. and used later (homogenate-fraction). The nuclear pellet was obtained by low speed centrifugation (10 min, 1000×g) in a Sorvall S22 rotor and stored at […] A crude vesicular fraction was obtained by centrifugating the nuclear supernatant in a Sorvall S22 rotor (20,000×g, 30 min), and was resuspended in 10 ml CMF-Hank's. After adding 20 ml 2.25 M sucrose in CMF-Hank's, this suspension was loaded on 4×8 ml 2.25 M sucrose in CMF-Hank's and centrifuged at 80,000×g for 1 h in a Beckman SW28 motor. […]
as §1

C6 cells = experiment: C6 cell spreading on CNS myelin or PLYS with protease inhibitors; type: cell-based, rat; conditions: C6 cells; spreading on PLYS minus spreading on CNS myelin
Procedure: Rat C6, mouse NIH 3T3 and B16 cells were cultured in Dulbecco's modified Eagle's medium (DMEM) supplemented with 10% fetal calf serum (FCS), usually to maximally 70-80% confluency. Cells were harvested with a short trypsin treatment (0.1% in Ca^2+/Mg^2+-free Hank's medium for 90 seconds) stopped by addition of FCS in excess, collected by centrifugation. Cells were resuspended in either DMEM/FCS or defined serum-free medium (MEM) and used for experiments. […]
Myelin from rat spinal cord (CNS) or sciatic nerve (PNS) purified on a discontinuous sucrose gradient as described in Section 6.1.5., was dried overnight onto PLYS coated wells (20 μg protein/well of 100 mm^2 surface). […] Experiments were scored at different time points using a phase contrast microscope equipped with a photocamera. Quantifications were done using a surface integration program; three arbitrary fields were photographed for each well at a magnitude of 80×, at least 25 cells per picture were measured. […] Results are expressed as μ^2 of projected cell surface, or as degree, which was calculated by subtracting from the projected surface value of a spreading cell, the surface value of a completely spheric cell.

Effect on cbz-FAF[^125I]Y-NH2 degradation by C6 plasma membranes, in words [1]: had no effect
B1: soybean trypsin inhibitor: serine protease blocker (protein, UniProt P01070 25-205, looked up)
Trypsin inhibitor A: DFVLDNEGNPLENGGTYYILSDITAFGGIRAAPTGNERCPLTVVQSRNELDKGIGTIISSPYRIRFIAEGHPLSLKFDSFAVIMLCVGIPTEWSVVEDLPEGPAVKIGENKDAMDGWFRLERVSDDEFNNYKLVFCPQQAEDDKCGDIGISIDHDDGTRRLVVSKNKPLVVQFQKLDKESL

B2: tPA: tissue-type plasminogen activator (protein, UniProt P00750 36-562, looked up)
Tissue-type plasminogen …: SYQVICRDEKTQMIYQQHQSWLRPVLRSNRVEYCWCNSGRAQCHSVPVKSCSEPRCFNGGTCQQALYFSDFVCQCPEGFAGKCCEIDTRATCYEDQGISYRGTWSTAESGAECTNWNSSALAQKPYSGRRPDAIRLGLGNHNYCRNPDRDSKPWCYVFKAGKYSSEFCSTPACSEGNSDCYFGNGSAYRGTHSLTESGASCLPWNSMILIGKVYTAQNPSAQALGLGKHNYCRNPDGDAKPWCHVLKNRRLTWEYCDVPSCSTCGLRQYSQPQFRIKGGLFADIASHPWQAAIFAKHRRSPGERFLCGGILISSCWILSAAHCFQERFPPHHLTVILGRTYRVVPGEEEQKFEVEKYIVHKEFDDDTYDNDIALLQLKSDSSRCAQESSVVRTVCLPPADLQLPDWTECELSGYGKHEALSPFYSERLKEAHVRLYPSSRCTSQHLLNRTVTDNMLCAGDTRSGGPQANLHDACQGDSGGPLVCLNDGRMTLVGIISWGLGCGQKDVPGVYTKVTNYLDWIRDNMRP
Amount necessary to degrade 50% of substrate in 30 min (cbz-FAF[^125I]Y-NH2): >100 µg

B3: papain: cysteine protease (protein, UniProt P00784 134-345, looked up)
Papain: IPEYVDWRQKGAVTPVKNQGSCGSCWAFSAVVTIEGIIKIRTGNLNEYSEQELLDCDRRSYGCNGGYPWSALQLVAQYGIHYRNTYPYEGVQRYCRSREKGPYAAKTDGVRQVQPYNEGALLYSIANQPVSVVLEAAGKDFQLYRGGIFVGPCGNKVDHAVAAVGYGPNYILIKNSWGTGWGENGYIRIKRGTGNSYGVCGLYTSSFYPVKN
Amount necessary to degrade 50% of substrate in 30 min (cbz-FAF[^125I]Y-NH2): 2 µg and 2.0 µg

B4: 2-macroglobulin: general protease inhibitor (protein, UniProt P01023 24-1474, looked up)
Alpha-2-macroglobulin: SVSGKPQYMVLVPSLLHTETTEKGCVLLSYLNETVTVSASLESVRGNRSLFTDLEAENDVLHCVAFAVPKSSSNEEVMFLTVQVKGPTQEFKKRTTVMVKNEDSLVFVQTDKSIYKPGQTVKFRVVSMDENFHPLNELIPLVYIQDPKGNRIAQWQSFQLEGGLKQFSFPLSSEPFQGSYKVVVQKKSGGRTEHPFTVEEFVLPKFEVQVTVPKIITILEEEMNVSVCGLYTYGKPVPGHVTVSICRKYSDASDCHGEDSQAFCEKFSGQLNSHGCFYQQVKTKVFQLKRKEYEMKLHTEAQIQEEGTVVELTGRQSSEITRTITKLSFVKVDSHFRQGIPFFGQVRLVDGKGVPIPNKVIFIRGNEANYYSNATTDEHGLVQFSINTTNVMGTSLTVRVNYKDRSPCYGYQWVSEEHEEAHHTAYLVFSPSKSFVHLEPMSHELPCGHTQTVQAHYILNGGTLLGLKKLSFYYLIMAKGGIVRTGTHGLLVKQEDMKGHFSISIPVKSDIAPVARLLIYAVLPTGDVIGDSAKYDVENCLANKVDLSFSPSQSLPASHAHLRVTAAPQSVCALRAVDQSVLLMKPDAELSASSVYNLLPEKDLTGFPGPLNDQDNEDCINRHNVYINGITYTPVSSTNEKDMYSFLEDMGLKAFTNSKIRKPKMCPQLQQYEMHGPEGLRVGFYESDVMGRGHARLVHVEEPHTETVRKYFPETWIWDLVVVNSAGVAEVGVTVPDTITEWKAGAFCLSEDAGLGISSTASLRAFQPFFVELTMPYSVIRGEAFTLKATVLNYLPKCIRVSVQLEASPAFLAVPVEKEQAPHCICANGRQTVSWAVTPKSLGNVNFTVSAEALESQELCGTEVPSVPEHGRKDTVIKPLLVEPEGLEKETTFNSLLCPSGGEVSEELSLKLPPNVVEESARASVSVLGDILGSAMQNTQNLLQMPYGCGEQNMVLFAPNIYVLDYLNETQQLTPEIKSKAIGYLNTGYQRQLNYKHYDGSYSTFGERYGRNQGNTWLTAFVLKTFAQARAYIFIDEAHITQALIWLSQRQKDNGCFRSSGSLLNNAIKGGVEDEVTLSAYITIALLEIPLTVTHPVVRNALFCLESAWKTAQEGDHGSHVYTKALLAYAFALAGNQDKRKEVLKSLNEEAVKKDNSVHWERPQKPKAPVGHFYEPQAPSAEVEMTSYVLLAYLTAQPAPTSEDLTSATNIVKWITKQQNAQGGFSSTQDTVVALHALSKYGAATFTRTGKAAQVTIQSSGTFSSKFQVDNNNRLLLQQVSLPELPGEYSMKVTGEGCVYLQTSLKYNILPEKEEFPFALGVQTLPQTCDEPKAHTSFQISLSVSYTGSRSASNMAIVDVKMVSGFIPLKPTVKMLERSNHVSRTEVSSNHVLIYLDKVSNQTLSLFFTVLQDVPVRDLKPAIVKVYDYYETDEFAIAEYNAPCSKDLGNA
Inhibition on CNS (%) (C6 cells): 18%
